These results are taken from US20170121318, “USE OF SMALL MOLECULE INHIBITORS TO KLF10 FOR MODULATION OF T REGULATORY CELLS AND CANCER IMMUNOTHERAPY” (THE BRIGHAM AND WOMEN'S HOSPITAL, INC., published 2017).

The data set addresses KLF10 (TIEG1) (UniProt Q13118 Q13118:1-480). The data set is described as follows: EMSA; 100 ng protein, 5 fmol probe, 5 mM MgCl2, poly(dI-dC), 0.05% NP-40, room temperature; binding inhibited by compounds #48, #48-15, #15-09. As to conditions: tags: GST fusion (GST-KLF10); Novus Biologicals; label: 3' biotin. The procedure:
The identified small molecule compounds were next examined for effects on KLF10 DNA-protein binding.
KLF10 recombinant protein was obtained from Novus Biologicals. […] End-labeled oligos (1 μmol/L) were annealed in a buffer system with 10 mM Tris, 50 mM NaCl, pH 8.0 by heating at 95° C. for 5 min, then slowly cooled to 65° C. for 30 min incubation, and cooled to room temperature. […] Compounds were incubated with KLF10 in a reaction system for 4 hrs at room temperature, and then Biotin-labeled probes were added for a 1 hr incubation.
On the technique in general: A gel shift assay detects complexes by their altered migration in electrophoresis.

Chain of KLF10 (TIEG1) (Q13118 whole entry, the tested form may be a part, one chain of several): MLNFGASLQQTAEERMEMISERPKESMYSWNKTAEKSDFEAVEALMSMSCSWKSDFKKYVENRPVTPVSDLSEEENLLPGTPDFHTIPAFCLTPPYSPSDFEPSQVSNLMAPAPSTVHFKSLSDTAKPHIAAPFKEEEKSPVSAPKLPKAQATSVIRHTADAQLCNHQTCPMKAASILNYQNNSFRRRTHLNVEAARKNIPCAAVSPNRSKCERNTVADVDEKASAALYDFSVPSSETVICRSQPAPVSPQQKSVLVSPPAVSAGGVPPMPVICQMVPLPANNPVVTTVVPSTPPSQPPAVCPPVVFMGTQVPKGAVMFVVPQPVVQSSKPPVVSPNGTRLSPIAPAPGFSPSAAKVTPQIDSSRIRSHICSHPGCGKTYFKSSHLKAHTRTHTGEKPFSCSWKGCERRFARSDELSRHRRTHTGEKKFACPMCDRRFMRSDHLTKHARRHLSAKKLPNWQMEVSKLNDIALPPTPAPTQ

B1: KLF10 consensus DNA-binding sequence (dsDNA)
DNA 1: GCAGTGAAAAGGGGGTGTGTCAGGATGC
DNA 2: GCATCCTGACACACCCCCTTTTCACTGC
As to B1, the binding result is “binds”.
